This data set can be described thus: collision cross section of modified peptide (TIMS, N2, iRT-aligned); higher = larger / more extended gas-phase ion. An outline of the steps:
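On a timsTOF Pro/HT (dda-PASEF, nitrogen, ~2.4 mbar), synthetic peptide pools were analysed after a 120-min nanoflow C18 separation at 60 °C and identified in MaxQuant. Three reference ions served for 1/K0 calibration, with run-wise alignment to the median iRT peptide deviation. Collision cross section comes from the Mason-Schamp equation, using the most abundant feature per charge state averaged over 1–3 technical replicates.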

The mark [1] stands for this setting: charge state: 2, modification: hydroxyisobutyryl.
Where [2] appears, read: charge state: 3, modification: hydroxyisobutyryl.
Where [3] appears, read: charge state: 2, modification: Acetyl (K).
The mark [4] stands for this setting: charge state: 3, modification: Acetyl (K).
Where [5] appears, read: charge state: 2, modification: Methyl (K).
Where [6] appears, read: charge state: 3, modification: Methyl (K).
Setting [7] is: charge state: 2, modification: Hydroxyproline.
The mark [8] stands for this setting: charge state: 3, modification: Hydroxyproline.
Where [9] appears, read: charge state: 2, modification: Nitro (Y).
The mark [10] stands for this setting: charge state: 2, modification: GlyGly (K).
Setting [11] is: charge state: 3, modification: GlyGly (K).
[12] abbreviates: charge state: 2, modification: Succinyl.
The mark [13] stands for this setting: charge state: 3, modification: Succinyl.
The mark [14] stands for this setting: charge state: 3, modification: Dimethyl (K).
Setting [15] is: charge state: 2, modification: Formyl.
Setting [16] is: charge state: 2, modification: Crotonyl.
[17] abbreviates: charge state: 3, modification: Nitro (Y).
The mark [18] stands for this setting: charge state: 2, modification: Biotin.
Setting [19] is: charge state: 3, modification: Trimethyl (K).
Where [20] appears, read: charge state: 2, modification: Trimethyl (K).
Where [21] appears, read: charge state: 2, modification: Malonyl.
The mark [22] stands for this setting: charge state: 3, modification: Methyl (R).

± gives the standard deviation.

Turning to “SLFFGGKGAPLQR [_SLFFGGK(hydroxyisobutyryl)GAPLQR_]”, the collision cross section under setting [1] is on record as 408.12 ± 0.55 Å² and the collision cross section under setting [2] worked out at 482.11 Å².

As for “VGLQVVAVKAPGFGDNR [_VGLQVVAVK(Acetyl (K))APGFGDNR_]”, the collision cross section reads like this: under setting [3], 442.66 ± 2 Å²; under setting [4], 493.83 ± 2.3 Å². As for “VNIGQGSHPQKVK [_VNIGQGSHPQK(Methyl (K))VK_]”, the collision cross section reads like this: under setting [5], 409.02 ± 0.54 Å²; under setting [6], 465.41 ± 17 Å². On to “FPGVGVLPGVPTGAGVKPK [_FPGVGVLPGVPTGAGVKP(Hydroxyproline)K_]”, for which the collision cross section was 440.08 ± 1.4 Å² under setting [7] and 556.97 ± 11 Å² under setting [8]. Turning to “DFDTALKHYDK [_DFDTALK(Gluratylation)HYDK_]”, the collision cross section (charge state: 2, modification: Glutarylation) is 406.02 ± 0.63 Å² and the collision cross section (charge state: 3, modification: Glutarylation) came to 469.01 ± 1.7 Å².

Consider “GERGPPGPPGK [_GERGPPGPP(Hydroxyproline)GK_]”, for which the collision cross section was 326.03 ± 0.88 Å² under setting [7] and 407.49 ± 18 Å² under setting [8]. As for “SPPLPEHQKIPCNSAEPK [_SPPLPEHQK(hydroxyisobutyryl)IPCNSAEPK_]”, the collision cross section under setting [2] was 544.57 Å². With LSSETYSQAK [_LSSETY(Nitro (Y))SQAK_], the collision cross section under setting [9] came to 352.74 ± 0.47 Å².

Consider IQQELQTAKK [_IQQELQTAK(GlyGly (K))K_], for which the collision cross section came to 381.49 ± 0.89 Å² under setting [10] and 434.95 ± 2 Å² under setting [11]. As to “TTGFYSGFSEVAEKR [_TTGFYSGFSEVAEK(Succinyl)R_]”, the collision cross section runs as follows: under setting [12], 441.9 ± 0.5 Å²; under setting [13], 512.39 ± 1.6 Å².

For “PANEKATDDYHYEK [_PANEK(Succinyl)ATDDYHYEK_]”, the collision cross section runs as follows: under setting [12], 446.9 ± 1.1 Å²; under setting [13], 500.9 ± 1.6 Å². Under setting [9], HGVYNPNK [_HGVY(Nitro (Y))NPNK_] yielded a collision cross section of 338.11 ± 3.3 Å². For the sequence “INNFSADIKDSK [_INNFSADIK(Dimethyl (K))DSK_]”, the collision cross section by setting is: (charge state: 2, modification: Dimethyl (K)) 406.51 ± 0.23 Å²; under setting [14], 455.06 ± 5.9 Å². With “TQAYQDQKPGTSGLR [_TQAYQDQK(Formyl)PGTSGLR_]”, under setting [15], the collision cross section is given as 427.08 ± 0.79 Å². Same read-out and setting: the value for LDEKENLSAK [_LDEK(Formyl)ENLSAK_] was 361.57 ± 0.88 Å².

On to “GDTGLPGPQGIPGGVGSPGR [_GDTGLPGPQGIP(Hydroxyproline)GGVGSPGR_]”, for which, under setting [7], the collision cross section turned out to be 430.06 ± 1.1 Å². In turn, “TAGSSGVTAGRPRPTAR [_TAGSSGVTAGRPRPT(HexNAc (ST))AR_]” registered a collision cross section (charge state: 3, modification: HexNAc (ST)) of 527.29 ± 0.18 Å². DFDTALKHYDK [_DFDTALK(Crotonyl)HYDK_] came in with a collision cross section under setting [16] of 412.02 ± 2.4 Å² and a collision cross section (charge state: 3, modification: Crotonyl) of 466.35 ± 1.9 Å². “ITLSKHQNVQLPR [_ITLSK(Acetyl (K))HQNVQLPR_]”: the collision cross section amounted to 436.23 ± 3.2 Å² under setting [3] and 526.67 ± 2.1 Å² under setting [4]. Sequence “GYLGPEQLPDCLK [_GY(Nitro (Y))LGPEQLPDCLK_]” showed a collision cross section under setting [9] of 396.71 ± 0.18 Å².

As to “TQDQISNIKYHEEFEK [_TQDQISNIK(Butyryl)YHEEFEK_]”, the collision cross section (charge state: 3, modification: Butyryl) is recorded as 559.77 ± 1.1 Å². “YEEIVKEVSTYIK [_YEEIVK(Methyl (K))EVSTYIK_]”: the collision cross section runs as follows: under setting [5], 440.62 ± 1.8 Å²; under setting [6], 492.07 ± 3.2 Å². Turning to “AGRGFSLEELR [_AGR(Citrullination (R))GFSLEELR_]”, the collision cross section (charge state: 2, modification: Citrullination (R)) was found to be 372.54 ± 0.24 Å². “IHVQSSSDSSDEPAEKR [_IHVQSSSDSSDEPAEK(Dimethyl (K))R_]”: the collision cross section under setting [14] amounted to 519.62 ± 3.4 Å². In the case of “SPASDTYIVFGEAK [_SPASDTY(Nitro (Y))IVFGEAK_]”, the collision cross section is, setting by setting: under setting [9], 402.5 ± 0.55 Å²; under setting [17], 486.92 Å².

On to AGQKLIDVNHYAK [_AGQK(Biotin)LIDVNHYAK_], for which the collision cross section by setting is: under setting [18], 451.79 ± 0.62 Å²; (charge state: 3, modification: Biotin) 517.92 ± 3.1 Å². For GITGKPGPK [_GITGKP(Hydroxyproline)GPK_], the collision cross section under setting [7] was 315.51 ± 1.9 Å².

In turn, “TLQKQSVVYGGK [_TLQK(hydroxyisobutyryl)QSVVYGGK_]” showed a collision cross section under setting [1] of 398.93 ± 0.3 Å².

Consider TSAYGPPTR [_TSAY(Nitro (Y))GPPTR_], for which, under setting [9], the collision cross section turned out to be 326.25 ± 1.1 Å². ILDLKTGTVK [_ILDLK(Methyl (K))TGTVK_] yielded a collision cross section under setting [5] of 356.44 ± 1 Å². In turn, “ALASIDSKLNQAK [_ALASIDSK(hydroxyisobutyryl)LNQAK_]” yielded a collision cross section under setting [1] of 410.87 ± 9.2 Å². On the same count and under the same terms, the value for “TVSKVDDFLANEAK [_TVSK(hydroxyisobutyryl)VDDFLANEAK_]” was 426.08 ± 0.56 Å². On the same count and under the same terms, in the case of “TPNLYIYSKK [_TPNLYIYSK(hydroxyisobutyryl)K_]” it was 388.68 ± 3 Å². Turning to AYGELPEHAK [_AY(Nitro (Y))GELPEHAK_], the collision cross section came to 361.5 ± 1.2 Å² under setting [9] and 445.86 ± 1.2 Å² under setting [17]. Turning to “TQAYQDQKPGTSGLR [_TQAYQDQK(Trimethyl (K))PGTSGLR_]”, the collision cross section under setting [19] is recorded as 476 ± 1.5 Å². For “GLPGEPGPRGLLGPK [_GLPGEP(Hydroxyproline)GPRGLLGPK_]”, the collision cross section under setting [7] was 409.23 ± 0.28 Å².

For “SSGPGGQNVNKVNSK [_SSGPGGQNVNK(Trimethyl (K))VNSK_]”, the collision cross section came out at 400.23 ± 1.6 Å² under setting [20] and 442.26 ± 2.4 Å² under setting [19]. With “ITESVAETAQTIKK [_ITESVAETAQTIK(hydroxyisobutyryl)K_]”, the collision cross section under setting [1] was found to be 425.76 ± 3.1 Å² and the collision cross section under setting [2] was 520.92 ± 2 Å².

On to IQTKAGEATVK [_IQTK(Formyl)AGEATVK_], for which, under setting [15], the collision cross section worked out at 359.75 ± 0.38 Å². The sequence “DKALPLEAEVAPVK [_DK(Butyryl)ALPLEAEVAPVK_]” showed a collision cross section (charge state: 2, modification: Butyryl) of 418.05 ± 4.9 Å².

In turn, ASEALLKQLK [_ASEALLK(Malonyl)QLK_] yielded a collision cross section under setting [21] of 374.73 ± 0.63 Å².

On to LQLEIDQKK [_LQLEIDQK(GlyGly (K))K_], for which the collision cross section by setting is: under setting [10], 376.75 ± 0.46 Å²; under setting [11], 433 ± 2.7 Å². With “TQDQISNIKYHEEFEK [_TQDQISNIK(Succinyl)YHEEFEK_]”, the collision cross section under setting [13] amounted to 549.89 ± 1.1 Å². Consider “TVSKVDDFLANEAK [_TVSK(Biotin)VDDFLANEAK_]”, for which the collision cross section under setting [18] turned out to be 445.28 ± 0.73 Å². The sequence ISALQGKLSK [_ISALQGK(Crotonyl)LSK_] returned a collision cross section under setting [16] of 358.67 ± 0.88 Å².

Under setting [22], “SGGYGGSRDYYSSR [_SGGYGGSR(Methyl (R))DYYSSR_]” showed a collision cross section of 475.52 ± 2 Å². “SYGIPYIETSAK [_SY(Nitro (Y))GIPYIETSAK_]” had a collision cross section under setting [9] of 386.26 ± 0.17 Å². Regarding VETTVTSLKTK [_VETTVTSLK(Formyl)TK_], the collision cross section under setting [15] is recorded as 373.38 ± 0.89 Å². Where the note is “charge state: 3, modification: Citrullination (R)”, “SRGGGGNFGPGPGSNFR [_SR(Citrullination (R))GGGGNFGPGPGSNFR_]” gave a collision cross section of 461.31 ± 6.4 Å². DVNAAIAAIKTK [_DVNAAIAAIK(Formyl)TK_] gave a collision cross section under setting [15] of 377.34 ± 15 Å². For “ATVASSTQKFQDLGVK [_ATVASSTQK(GlyGly (K))FQDLGVK_]”, the collision cross section is, setting by setting: under setting [10], 480.31 ± 1.5 Å²; under setting [11], 500.25 ± 0.34 Å². As to “SRGGGGNFGPGPGSNFR [_SR(Methyl (R))GGGGNFGPGPGSNFR_]”, under setting [22], the collision cross section was found to be 461.66 ± 1.4 Å².

Take “LGNTISSLFGGGTTPDAK [_LGNTISSLFGGGT(HexNAc (ST))TPDAK_]”: the collision cross section (charge state: 2, modification: HexNAc (ST)) is given as 471.52 Å². Consider “VDVEVPDVSLEGPEGKLK [_VDVEVPDVSLEGPEGK(Trimethyl (K))LK_]”, for which the collision cross section was 461.69 ± 0.55 Å² under setting [20] and 507.27 ± 0.86 Å² under setting [19]. For the sequence “VFSIISSEKELK [_VFSIISSEK(hydroxyisobutyryl)ELK_]”, under setting [1], the collision cross section stood at 414.96 ± 0.83 Å². As to “IDLPAENSNSETIIITGKR [_IDLPAENSNSETIIITGK(Succinyl)R_]”, the collision cross section under setting [12] is 492.62 ± 0.3 Å².

The sequence “ALASIDSKLNQAK [_ALASIDSK(Malonyl)LNQAK_]” came in with a collision cross section under setting [21] of 399.65 ± 0.028 Å². With “STGLELETPSLVPVKK [_STGLELETPSLVPVK(Trimethyl (K))K_]”, the collision cross section is, setting by setting: under setting [20], 461.73 ± 1.2 Å²; under setting [19], 522.47 ± 0.88 Å². With “TGGTQTDLFTCGKCK [_TGGTQTDLFTCGK(hydroxyisobutyryl)CK_]”, the collision cross section under setting [1] was 448.92 Å². Regarding LEEVTGKLQVAR [_LEEVTGK(Malonyl)LQVAR_], the collision cross section under setting [21] was 393.19 ± 0.021 Å². Under setting [6], “YEQEHAAIQDKLFQVAK [_YEQEHAAIQDK(Methyl (K))LFQVAK_]” came in with a collision cross section of 557.9 ± 0.6 Å².

Source of the values: the supplement of paper PMC10598134.
